These are literature values, as cited in PMC10219982.

The series has as its target Follistatin (UniProt P19883). Briefly: SPR.
Sequence of UniProt P19883 (P19883 30-344): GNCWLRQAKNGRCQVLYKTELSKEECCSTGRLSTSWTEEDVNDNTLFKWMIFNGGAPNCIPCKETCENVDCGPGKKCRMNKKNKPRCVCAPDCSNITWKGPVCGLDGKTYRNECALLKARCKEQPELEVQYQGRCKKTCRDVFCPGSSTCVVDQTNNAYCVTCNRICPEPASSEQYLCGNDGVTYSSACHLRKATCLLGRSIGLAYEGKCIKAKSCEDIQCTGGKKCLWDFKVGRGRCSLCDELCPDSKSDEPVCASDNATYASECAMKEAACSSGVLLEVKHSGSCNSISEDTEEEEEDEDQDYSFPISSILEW

As for BMP4 (from UniProt P12644), the Kd was 0.0225 µM.
